According to patent publication US6403765B1, “Truncated Apaf-1 and methods of use thereof” (Thomas Jefferson University, priority 1998, dated 2002):
One block for each molecule: values may come before it.

How the values were obtained:
MCF-7 cells = test: Inhibition of apoptosis in transfected MCF-7 cells; type: cell-based; settings: apoptosis induced by UV, Fas agonist antibody, TRAIL, or overexpression of DR4 and DR5, FIG. 17
Excerpt: To express the caspases or truncated Apaf-1 in mammalian cells and assay their apoptotic activity, they were amplified with the T7-tag primer and reverse primers using the pET28a constructs as templates, and subcloned into the mammalian double expression vector pRSC-LacZ (MacFarlane et al., J. Biol. Chem., 272:25417-25420, 1997; Tsang et al., Bio/Technology, 22:68, 1997) or as previously described (Li et al., Cell 91:479-489, 1997; Srinivasula et al., J. Biol. Chem., 272:18452-18545, 1997). This vector allows the expression of lacZ under the Rous Sarcoma virus promoter, and the test cDNA under the CMV promoter. To assay for apoptosis, MCF-7 or 293 cells were transfected, using the method commercially available as the Lipofect Amine method (Life Technologies, Inc.), with the pRSC-LacZ constructs in the presence or absence of different apoptosis-inhibitors. 30 h after transfection cells were stained with β-galactosidase and examined for morphological signs of apoptosis. The percentage of round blue apoptotic cells (mean±SD) were determined by phase contrast microscopy and then represented as a function of total blue cells under each condition (n≧3).

procaspase-9 = target: T1, procaspase-9 (Homo sapiens, UniProt P55211); test: In vitro caspase 9 activation assay: recombinant Apaf-1 variants incubated with in vitro translated procaspase-9; type: biochemical; settings: bacterial lysates with truncated Apaf-1 variants, FIG. 2B
T1 construct: schematic representation of full length procaspase-9; made in house; host or cells: coupled in vitro transcription/translation in rabbit reticulocyte lysate (TNT Kit, Promega)
T1 sequence (P55211 1-416): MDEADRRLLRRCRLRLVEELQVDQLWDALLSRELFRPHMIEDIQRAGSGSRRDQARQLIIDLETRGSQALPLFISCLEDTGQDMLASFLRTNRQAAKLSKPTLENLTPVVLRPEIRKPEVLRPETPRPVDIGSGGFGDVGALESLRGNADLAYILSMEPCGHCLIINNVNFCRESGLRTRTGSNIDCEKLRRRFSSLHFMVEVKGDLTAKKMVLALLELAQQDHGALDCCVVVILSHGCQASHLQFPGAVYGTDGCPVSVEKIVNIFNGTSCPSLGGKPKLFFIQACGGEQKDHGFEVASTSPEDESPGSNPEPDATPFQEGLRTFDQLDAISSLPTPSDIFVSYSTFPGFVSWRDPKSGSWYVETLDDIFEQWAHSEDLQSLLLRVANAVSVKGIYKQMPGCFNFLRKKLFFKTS
Description: SDS sample buffer was then added to each sample, boiled and subjected to SDS-PAGE analysis followed by autoradiography. In FIG. 2A procaspase-9 was in vitro translated in the presence of ^35S-methionine. Following translation procaspase-9 was desalted by gel filtration through a biospin column (BioRad) to remove unincorporated methionine and free nucleotides. Desalted procaspase-9 was then incubated with 200 ng Ni^2+-affinity purified bacterially expressed recombinant Apaf-530 (WT or K149R mutant) in the presence or absence of cytochrome c or dATP or both for 2 h at 30° C. A mock sample containing Ni^2+-affinity purified material from bacteria transformed with an empty vector was used as a negative control. Following incubation the products were analyzed by SDS-PAGE and autoradiography. In FIG. 2B^35S-labeled procaspase-9 (as described above) was incubated with bacterial lysates containing truncated Apaf-1 variants as indicated and then analyzed as above (2B upper panel). The bacterial lysates were analyzed by SDS-PAGE and immunoblotted with an Apaf-1 antibody which recognizes the N-terminus of Apaf-1 (lanes 2-6) and an anti T7-tag antibody (lanes 7-8) to confirm expression and equivalent concentration of the different Apaf-1 variants (2B lowerpanel). The molecular mass markers are indicated to the right of the lower panel.
^35S-labeled caspases were obtained by in vitro translation in the presence of ^35S-methionine using a coupled transcription/translation system in rabbit reticulocyte lysate using TNT Kit (Promega) according to the manufacturer's recommendations.
To determine the role of the WD-40 repeat in the mechanism of Apaf-1-induced processing of procaspase-9, truncated Apaf-1 (Apaf-530) lacking its WD-40 repeats (FIG. 1) was expressed and purified. To reconstitute a recombinant caspase-9 activation system, the truncated Apaf-530 was incubated with in vitro translated recombinant procaspase-9 in the presence or absence of cytochrome c and dATP. […] It was previously shown that mutation of CED-4 K165R which is required for nucleotide binding destroys its activity (Chinnaiyan et al., Nature 388:728-729, 1997; Jarnes et al., Curr. Biol. 7:246-252, 1997; Seshagiri and Miller, Curr. Biol. 7:455-460, 1997). […] Therefore, either binding of Apaf-1 to cytochrome c and dATP or deletion of the repeats could induce a conformational change enabling Apaf-1 to bind and process procaspase-9.
In FIG. 3, ^35S-labeled WT or mutant D330A, D315A or C287A mutants of procaspase-9 or prodomainless procaspase-9 (Δpro, residues 134-416) were incubated with buffer (lanes 1, 4, 7, 10, 13), purified Apaf-530 (lanes 2, 5, 8, 11, 14) or mock purified material (lanes, 3, 6, 9, 12, 15) and then analyzed by SDS-PAGE and autoradiography.

T7-tagged Apaf-530 = target: T2, T7-tagged Apaf-530 (Homo sapiens, UniProt O14727); test: Co-immunoprecipitation of Flag-tagged Apaf-1 variants with T7-tagged Apaf-530 in 293 cells; type: binding; settings: anti-Flag immunoprecipitation, anti-T7 blot, 36 hours, FIG. 11
T2 construct: expressed in transfected cells; host or cells: 293 cells
T2 sequence (O14727 1-530 isoform O14727-3): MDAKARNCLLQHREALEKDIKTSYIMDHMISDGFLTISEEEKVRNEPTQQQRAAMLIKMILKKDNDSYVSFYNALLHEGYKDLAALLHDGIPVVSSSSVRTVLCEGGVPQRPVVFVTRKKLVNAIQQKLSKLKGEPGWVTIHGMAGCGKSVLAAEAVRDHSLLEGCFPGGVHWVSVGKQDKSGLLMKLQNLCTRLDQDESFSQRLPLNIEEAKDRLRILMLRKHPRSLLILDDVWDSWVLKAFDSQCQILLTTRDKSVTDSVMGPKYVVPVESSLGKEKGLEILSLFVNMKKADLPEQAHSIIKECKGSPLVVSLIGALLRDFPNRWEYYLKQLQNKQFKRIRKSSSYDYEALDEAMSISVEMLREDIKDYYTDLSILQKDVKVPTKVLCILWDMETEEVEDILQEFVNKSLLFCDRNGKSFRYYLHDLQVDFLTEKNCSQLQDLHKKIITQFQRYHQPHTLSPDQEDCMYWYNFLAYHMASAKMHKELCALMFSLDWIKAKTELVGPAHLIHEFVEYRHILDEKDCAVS
Description: The ability of APAF-530 to oligomerize pro-caspase-9 was tested. Co-transfection experiments in 293 cells were performed with T7-tagged Apaf-530 and different Flag-tagged Apaf-1 variants, and cell lysates were prepared and immunoprecipitated with an anti-Flag antibody. The immunoprecipitates were analyzed by Western blotting with an anti-T7 antibody.
In FIG. 11, 293 cells were co-transfected with constructs encoding T7-tagged Apaf-530 and an empty vector (lane 1) or constructs encoding Flag-tagged Apaf-1 (lane 2), Flag-tagged Apaf-530 (lane 3), Flag-tagged Apaf-530ΔCARD (lane 4) or Flag-tagged Apaf-97 (lane 5). After 36 hours, extracts were prepared and immunoprecipitated with a monoclonal antibody to the Flag epitope. The immunoprecipitates (upper panel) were analyzed by SDS-PAGE and immunoblotted with a horseradish peroxides-conjugated T7 antibody. The corresponding cellular extracts were also analyzed by SDS-PAGE and immunoblotted with a horseradish peroxides-conjugated T7 antibody (middle panel) or an anti-Flag antibody (lower panel).

T7-tagged Bcl-xL = target: T3, T7-tagged Bcl-xL (Homo sapiens, UniProt Q07817); test: Co-immunoprecipitation of Flag-tagged Apaf-1 variants or procaspase-9 with T7-tagged Bcl-xL in 293 cells; type: binding; settings: anti-Flag immunoprecipitation, anti-T7 blot, 36 hours, FIG. 16
T3 construct: expressed in transfected cells; host or cells: 293 cells
T3 sequence (Q07817 whole entry): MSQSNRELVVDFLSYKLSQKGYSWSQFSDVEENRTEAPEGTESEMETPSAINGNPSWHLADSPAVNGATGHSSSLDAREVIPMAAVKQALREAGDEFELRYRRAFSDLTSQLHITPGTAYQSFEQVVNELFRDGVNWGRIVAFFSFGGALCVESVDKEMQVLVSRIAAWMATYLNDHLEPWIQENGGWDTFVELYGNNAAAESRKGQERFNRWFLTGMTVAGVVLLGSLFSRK
Description: In vivo interaction experiments between Apaf-1 variants and Bcl-xL were performed. To analyze the ability of Apaf-1 to interact with Bcl-xL, 293 cells were co-transfected with constructs encoding T7-tagged Bcl-xL and constructs encoding Flag-tagged Apaf-97 (FIG. 16, lane 1), Apaf-1 (FIG. 16, lane 2), Apaf-530 (FIG. 16, lane 3) Apaf-530ΔCARD (FIG. 16, lane 4), or procaspase-9 C287A (FIG. 16, lane 5). After 36 hours, extracts were prepared and immunoprecipitated with a monoclonal antibody to the Flag epitope. The immunoprecipitates (FIG. 16, upper panel) were analyzed by SDS-PAGE and immunoblotted with a horseradish peroxidase-conjugated T7 antibody. The corresponding cellular extracts were also analyzed by SDS-PAGE and immunoblotted with a horseradish peroxides-conjugated T7 antibody (FIG. 16, middle panel) or an anti-Flag antibody (FIG. 16, lower panel).

Molecule: Bcl-xL: Bcl-xL expressed from a transfected construct as apoptosis inhibitor comparator [reference compound]
inhibition of apoptosis (MCF-7 cells): inhibition

B3: Apaf-1: full length Apaf-1, 1194 amino acids (protein)
chain: MDAKARNCLLQHREALEKDIKTSYIMDHMISDGFLTISEEEKVRNEPTQQQRAAMLIKMILKKDNDSYVSFYNALLHEGYKDLAALLHDGIPVVSSSSVRTVLCEGGVPQRPVVFVTRKKLVNAIQQKLSKLKGEPGWVTIHGMAGCGKSVLAAEAVRDHSLLEGCFPGGVHWVSVGKQDKSGLLMKLQNLCTRLDQDESFSQRLPLNIEEAKDRLRILMLRKHPRSLLILDDVWDSWVLKAFDSQCQILLTTRDKSVTDSVMGPKYVVPVESSLGKEKGLEILSLFVNMKKADLPEQAHSIIKECKGSPLVVSLIGALLRDFPNRWEYYLKQLQNKQFKRIRKSSSYDYEALDEAMSISVEMLREDIKDYYTDLSILQKDVKVPTKVLCILWDMETEEVEDILQEFVNKSLLFCDRNGKSFRYYLHDLQVDFLTEKNCSQLQDLHKKIITQFQRYHQPHTLSPDQEDCMYWYNFLAYHMASAKMHKELCALMFSLDWIKAKTELVGPAHLIHEFVEYRHILDEKDCAVSENFQEFLSLNGHLLGRQPFPNIVQLGLCEPETSEVYQQAKLQAKQEVDNGMLYLEWINKKNITNLSRLVVRPHTDAVYHACFSEDGQRIASCGADKTLQVFKAETGEKLLEIKAHEDEVLCCAFSTDDRFIATCSVDKKVKIWNSMTGELVHTYDEHSEQVNCCHFTNSSHHLLLATGSSDCFLKLWDLNQKECRNTMFGHTNSVNHCRFSPDDKLLASCSADGTLKLWDATSANERKSINVKQFFLNLEDPQEDMEVIVKCCSWSADGARIMVAAKNKIFLWNTDSRSKVADCRGHLSWVHGVMFSPDGSSFLTSSDDQTIRLWETKKVCKNSAVMLKQEVDVVFQENEVMVLAVDHIRRLQLINGRTGQIDYLTEAQVSCCCLSPHLQYIAFGDENGAIEILELVNNRIFQSRFQHKKTVWHIQFTADEKTLISSSDDAEIQVWNWQLDKCIFLRGHQETVKDFRLLKNSRLLSWSFDGTVKVWNIITGNKEKDFVCHQGTVLSCDISHDATKFSSTSADKTAKIWSFDLLLPLHELRGHNGCVRCSAFSVDSTLLATGDDNGEIRIWNVSNGELLHLCAPLSEEGAATHGGWVTDLCFSPDGKMLISAGGYIKWWNVVTGESSQTFYTNGTNLKKIHVSPDFKTYVTVDNLGILYILQTLE
modifications: left off: small tags and cut ends
notes: full length Apaf-1, 1194 amino acids
co-immunoprecipitation with T7-Apaf-530 (T7-tagged Apaf-530): co-immunoprecipitated
co-immunoprecipitation with Bcl-xL (T7-tagged Bcl-xL): capable of immunoprecipitating Bcl-xL

The next lines start with the values.

activity of the Apaf-1 variant in promoting activation of procaspase-9 (procaspase-9): inactivated
co-immunoprecipitation with T7-Apaf-530 (T7-tagged Apaf-530): not
co-immunoprecipitation with Bcl-xL (T7-tagged Bcl-xL): not
B1: Apaf-97: truncated Apaf-1, residues 1-97, entire CED-4 homology region deleted (protein)
chain: MDAKARNCLLQHREALEKDIKTSYIMDHMISDGFLTISEEEKVRNEPTQQQRAAMLIKMILKKDNDSYVSFYNALLHEGYKDLAALLHDGIPVVSSS
modifications: left off: small tags and cut ends
notes: truncated Apaf-1, residues 1-97, entire CED-4 homology region deleted

activity of the Apaf-1 variant in promoting activation of procaspase-9 (procaspase-9): inactivated
co-immunoprecipitation with T7-Apaf-530 (T7-tagged Apaf-530): co-immunoprecipitated
co-immunoprecipitation with Bcl-xL (T7-tagged Bcl-xL): capable of immunoprecipitating Bcl-xL
B2: Apaf-530ΔCARD: truncated Apaf-1, residues 98-530, CARD domain deleted (protein)
chain: SVRTVLCEGGVPQRPVVFVTRKKLVNAIQQKLSKLKGEPGWVTIHGMAGCGKSVLAAEAVRDHSLLEGCFPGGVHWVSVGKQDKSGLLMKLQNLCTRLDQDESFSQRLPLNIEEAKDRLRILMLRKHPRSLLILDDVWDSWVLKAFDSQCQILLTTRDKSVTDSVMGPKYVVPVESSLGKEKGLEILSLFVNMKKADLPEQAHSIIKECKGSPLVVSLIGALLRDFPNRWEYYLKQLQNKQFKRIRKSSSYDYEALDEAMSISVEMLREDIKDYYTDLSILQKDVKVPTKVLCILWDMETEEVEDILQEFVNKSLLFCDRNGKSFRYYLHDLQVDFLTEKNCSQLQDLHKKIITQFQRYHQPHTLSPDQEDCMYWYNFLAYHMASAKMHKELCALMFSLDWIKAKTELVGPAHLIHEFVEYRHILDEKDCAVS
modifications: left off: small tags and cut ends
notes: truncated Apaf-1, residues 98-530, CARD domain deleted
